The source of these data is patent publication US20250352661A1 (MYTHIC THERAPEUTICS, published 2025).

T1: Human LRRC15 Protein, His Tag, Acro Biosystems (human, UniProt Q8TF66 22-538, limits assumed)
T1 construct: not shown: His tag
T1 sequence (looked up): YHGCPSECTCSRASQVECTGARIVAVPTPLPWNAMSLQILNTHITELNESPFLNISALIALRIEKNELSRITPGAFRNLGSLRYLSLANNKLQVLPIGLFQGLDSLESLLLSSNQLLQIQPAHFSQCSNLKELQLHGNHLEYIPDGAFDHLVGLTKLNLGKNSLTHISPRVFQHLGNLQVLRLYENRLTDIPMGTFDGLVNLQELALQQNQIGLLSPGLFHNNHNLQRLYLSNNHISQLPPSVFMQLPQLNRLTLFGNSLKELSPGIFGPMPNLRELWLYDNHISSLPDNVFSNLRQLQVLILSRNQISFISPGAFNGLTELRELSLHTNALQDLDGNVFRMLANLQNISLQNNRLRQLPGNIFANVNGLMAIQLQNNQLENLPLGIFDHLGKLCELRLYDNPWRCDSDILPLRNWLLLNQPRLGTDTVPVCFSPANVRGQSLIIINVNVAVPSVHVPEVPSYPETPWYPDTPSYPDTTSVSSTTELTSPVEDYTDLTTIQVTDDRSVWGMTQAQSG

T2: Human LRRC15 Protein, His Tag (Acro Biosystems) (human, UniProt Q8TF66 22-538, limits assumed)
T2 construct: not shown: His tag
T2 sequence (looked up): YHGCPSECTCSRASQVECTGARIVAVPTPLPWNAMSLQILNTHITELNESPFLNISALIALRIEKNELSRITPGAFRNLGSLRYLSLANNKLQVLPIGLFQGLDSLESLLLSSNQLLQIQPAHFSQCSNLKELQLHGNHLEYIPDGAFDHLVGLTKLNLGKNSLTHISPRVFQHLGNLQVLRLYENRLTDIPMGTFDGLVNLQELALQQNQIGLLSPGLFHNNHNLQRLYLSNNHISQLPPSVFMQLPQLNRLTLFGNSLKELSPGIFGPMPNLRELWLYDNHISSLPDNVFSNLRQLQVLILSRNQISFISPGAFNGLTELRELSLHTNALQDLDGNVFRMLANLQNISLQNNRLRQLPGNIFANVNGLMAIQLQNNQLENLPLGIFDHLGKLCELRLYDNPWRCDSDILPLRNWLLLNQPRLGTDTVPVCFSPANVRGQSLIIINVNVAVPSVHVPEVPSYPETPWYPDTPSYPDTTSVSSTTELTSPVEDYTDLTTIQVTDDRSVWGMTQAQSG

B1: MYT9727 (antibody, V domains shown)
VH: EVQLVESGGGLVQPGGSLRLSCTASGFSFSSSHWICWVRQAPGKGLEWVGCIYAGSIGSTYYASWAKGRFTISRDTSKNTVYLQMNSLRAEDTAVYYCARAPNDIYNYYFNLWGQGTLVTVSS
VL: EIVMTQSPSTLSASVGDRVIITCEASENIYNYLAWYQQKPGKAPKLLIYYASTLASGVPSRFSGSGSGAEFTLTISSLQPDDFATYYCQSGYVSKSSTFGQGTKLTVL
notes: Humanized 29F1 with VL Q24E; captured by anti-human Fc sensor
B2: MYT9730 (antibody, V domains shown)
VH: EVQLVESGGGLVQPGGSLRLSCTASGFSFSSSHWICWVRQAPGKGLEWVGCIYAGSIGSTYYASWAKGRFTISRDTSKNTVYLQMNSLRAEDTAVYYCARAPNDIYNYYFNLWGQGTLVTVSS
VL: EIVMTQSPSTLSASVGDRVIITCQASANIYNYLAWYQQKPGKAPKLLIYYASTLASGVPSRFSGSGSGAEFTLTISSLQPDDFATYYCQSGYVSKSSTFGQGTKLTVL
notes: Humanized 29F1 with VL E27A; captured by anti-human Fc sensor
B3: MYT9736 (antibody, V domains shown)
VH: EVQLVESGGGLVQPGGSLRLSCTASGFSFSSSHWICWVRQAPGKGLEWVGCIYAGSIGSTYYASWAKGRFTISRDTSKNTVYLQMNSLRAEDTAVYYCARAPNDIYNYYFNLWGQGTLVTVSS
VL: EIVMTQSPSTLSASVGDRVIITCQASENIYNYEAWYQQKPGKAPKLLIYYASTLASGVPSRFSGSGSGAEFTLTISSLQPDDFATYYCQSGYVSKSSTFGQGTKLTVL
notes: also called hu29F1 VL L33E
B4: MYT9744 (antibody, V domains shown)
VH: EVQLVESGGGLVQPGGSLRLSCTASGFSFSSSHWICWVRQAPGKGLEWVGCIYAGSIGSTYYASWAKGRFTISRDTSKNTVYLQMNSLRAEDTAVYYCARAPNDIYNYYFNLWGQGTLVTVSS
VL: EIVMTQSPSTLSASVGDRVIITCQASENIYNYLAWYQQKPGKAPKLLIYYASTLAEGVPSRFSGSGSGAEFTLTISSLQPDDFATYYCQSGYVSKSSTFGQGTKLTVL
notes: Humanized 29F1 with VL S56E; captured by anti-human Fc sensor
B5: MYT9741 (antibody, V domains shown)
VH: EVQLVESGGGLVQPGGSLRLSCTASGFSFSSSHWICWVRQAPGKGLEWVGCIYAGSIGSTYYASWAKGRFTISRDTSKNTVYLQMNSLRAEDTAVYYCARAPNDIYNYYFNLWGQGTLVTVSS
VL: EIVMTQSPSTLSASVGDRVIITCQASENIYNYLAWYQQKPGKAPKLLIYYASELASGVPSRFSGSGSGAEFTLTISSLQPDDFATYYCQSGYVSKSSTFGQGTKLTVL
notes: Humanized 29F1 with VL T53E; captured by anti-human Fc sensor
B6: MYT9728 (antibody, V domains shown)
VH: EVQLVESGGGLVQPGGSLRLSCTASGFSFSSSHWICWVRQAPGKGLEWVGCIYAGSIGSTYYASWAKGRFTISRDTSKNTVYLQMNSLRAEDTAVYYCARAPNDIYNYYFNLWGQGTLVTVSS
VL: EIVMTQSPSTLSASVGDRVIITCQESENIYNYLAWYQQKPGKAPKLLIYYASTLASGVPSRFSGSGSGAEFTLTISSLQPDDFATYYCQSGYVSKSSTFGQGTKLTVL
notes: also called hu29F1 VL A25E
B7: MYT9739 (antibody, V domains shown)
VH: EVQLVESGGGLVQPGGSLRLSCTASGFSFSSSHWICWVRQAPGKGLEWVGCIYAGSIGSTYYASWAKGRFTISRDTSKNTVYLQMNSLRAEDTAVYYCARAPNDIYNYYFNLWGQGTLVTVSS
VL: EIVMTQSPSTLSASVGDRVIITCQASENIYNYLAWYQQKPGKAPKLLIYYESTLASGVPSRFSGSGSGAEFTLTISSLQPDDFATYYCQSGYVSKSSTFGQGTKLTVL
notes: Humanized 29F1 with VL A51E; captured by anti-human Fc sensor
B8: MYT9732 (antibody, V domains shown)
VH: EVQLVESGGGLVQPGGSLRLSCTASGFSFSSSHWICWVRQAPGKGLEWVGCIYAGSIGSTYYASWAKGRFTISRDTSKNTVYLQMNSLRAEDTAVYYCARAPNDIYNYYFNLWGQGTLVTVSS
VL: EIVMTQSPSTLSASVGDRVIITCQASENEYNYLAWYQQKPGKAPKLLIYYASTLASGVPSRFSGSGSGAEFTLTISSLQPDDFATYYCQSGYVSKSSTFGQGTKLTVL
notes: also called hu29F1 VL I29E
B9: MYT9729 (antibody, V domains shown)
VH: EVQLVESGGGLVQPGGSLRLSCTASGFSFSSSHWICWVRQAPGKGLEWVGCIYAGSIGSTYYASWAKGRFTISRDTSKNTVYLQMNSLRAEDTAVYYCARAPNDIYNYYFNLWGQGTLVTVSS
VL: EIVMTQSPSTLSASVGDRVIITCQAEENIYNYLAWYQQKPGKAPKLLIYYASTLASGVPSRFSGSGSGAEFTLTISSLQPDDFATYYCQSGYVSKSSTFGQGTKLTVL
notes: also called hu29F1 VL S26E
B10: MYT9734 (antibody, V domains shown)
VH: EVQLVESGGGLVQPGGSLRLSCTASGFSFSSSHWICWVRQAPGKGLEWVGCIYAGSIGSTYYASWAKGRFTISRDTSKNTVYLQMNSLRAEDTAVYYCARAPNDIYNYYFNLWGQGTLVTVSS
VL: EIVMTQSPSTLSASVGDRVIITCQASENIYEYLAWYQQKPGKAPKLLIYYASTLASGVPSRFSGSGSGAEFTLTISSLQPDDFATYYCQSGYVSKSSTFGQGTKLTVL
notes: also called hu29F1 VL N31E
B11: MYT9738 (antibody, V domains shown)
VH: EVQLVESGGGLVQPGGSLRLSCTASGFSFSSSHWICWVRQAPGKGLEWVGCIYAGSIGSTYYASWAKGRFTISRDTSKNTVYLQMNSLRAEDTAVYYCARAPNDIYNYYFNLWGQGTLVTVSS
VL: EIVMTQSPSTLSASVGDRVIITCQASENIYNYLAWYQQKPGKAPKLLIYEASTLASGVPSRFSGSGSGAEFTLTISSLQPDDFATYYCQSGYVSKSSTFGQGTKLTVL
notes: Humanized 29F1 with VL Y50E; captured by anti-human Fc sensor
B12: MYT9740 (antibody, V domains shown)
VH: EVQLVESGGGLVQPGGSLRLSCTASGFSFSSSHWICWVRQAPGKGLEWVGCIYAGSIGSTYYASWAKGRFTISRDTSKNTVYLQMNSLRAEDTAVYYCARAPNDIYNYYFNLWGQGTLVTVSS
VL: EIVMTQSPSTLSASVGDRVIITCQASENIYNYLAWYQQKPGKAPKLLIYYAETLASGVPSRFSGSGSGAEFTLTISSLQPDDFATYYCQSGYVSKSSTFGQGTKLTVL
notes: Humanized 29F1 with VL S52E; captured by anti-human Fc sensor
B13: MYT9491 (antibody, V domains shown)
VH: EVQLVESGGGLVQPGGSLRLSCTASGFSFSSSHWICWVRQAPGKGLEWVGCIYAGSIGSTYYASWADGRFTISRDTSKNTVYLQMNSLRAEDTAVYYCARAPNDIYNYYFNLWGQGTLVTVSS
VL: EIVMTQSPSTLSASVGDRVIITCQASENIYNYLAWYQQKPGKAPKLLIYYASTLASGVPSRFSGSGSGAEFTLTISSLQPDDFATYYCQSGYVSKSSTFGQGTKLTVL
notes: also called hu29F1 VH K67D
B14: MYT9494 (antibody, V domains shown)
VH: EVQLVESGGGLVQPGGSLRLSCTASGFSFSSSHWICWVRQAPGKGLEWVGCIYAGSIGSTYYASWAKGRFTISRDTSKNTVYLQMNSLRAEDTAVYYCADAPNDIYNYYFNLWGQGTLVTVSS
VL: EIVMTQSPSTLSASVGDRVIITCQASENIYNYLAWYQQKPGKAPKLLIYYASTLASGVPSRFSGSGSGAEFTLTISSLQPDDFATYYCQSGYVSKSSTFGQGTKLTVL
notes: also called hu29F1 VH R100D
B15: MYT9490 (antibody, V domains shown)
VH: EVQLVESGGGLVQPGGSLRLSCTASGFSFSSSHWICWVRQAPGKGLEWVGCIYAGSIGSTYYASWDKGRFTISRDTSKNTVYLQMNSLRAEDTAVYYCARAPNDIYNYYFNLWGQGTLVTVSS
VL: EIVMTQSPSTLSASVGDRVIITCQASENIYNYLAWYQQKPGKAPKLLIYYASTLASGVPSRFSGSGSGAEFTLTISSLQPDDFATYYCQSGYVSKSSTFGQGTKLTVL
notes: also called hu29F1 VH A66D
B16: MYT9493 (antibody, V domains shown)
VH: EVQLVESGGGLVQPGGSLRLSCTASGFSFSSSHWICWVRQAPGKGLEWVGCIYAGSIGSTYYASWAKGRFTISRDTSKNTVYLQMNSLRAEDTAVYYCDRAPNDIYNYYFNLWGQGTLVTVSS
VL: EIVMTQSPSTLSASVGDRVIITCQASENIYNYLAWYQQKPGKAPKLLIYYASTLASGVPSRFSGSGSGAEFTLTISSLQPDDFATYYCQSGYVSKSSTFGQGTKLTVL
notes: Humanized 29F1 VH aspartate variant; also called hu29F1 VH A99D

In one assay the target is T1, Human LRRC15 Protein, His Tag, Acro …. The experiment in a line: BLI; dissociation pH 7.4 black, pH 5.4 grey [D00028 FIG. 7B].
As for B1, the binding result is listed as “binds”. On the same count and under the same terms, with B2 the entry was “binds”; with B3, “binds”. As to B4, the binding result is “binds”.

On to B5, for which the binding result was “binds”.

With B6, the binding result is reported as “binds”. Same read-out and setting: with B7 the entry was “binds”; with B8, “binds”. Still for that read-out and setting: with B9 the entry was “binds”; with B10, “binds”; with B11, “binds”.

Turning to B12, the binding result was “binds”.

Another assay has as its target T2, Human LRRC15 Protein, His Tag (Acro …). The experiment in a line: BLI; dissociation pH 7.4 black, pH 5.4 grey [1/2); D00019 FIG. 4B (1/2]. The protocol:
Desirable mutations were transferred to a humanized framework (humanized, MYT 8387-8411). After allowing for four days of protein expression, cell culture supernatants were collected, quantified by SDS-PAGE analysis, and the pH dependence of the variant was evaluated using biolayer interferometry (BLI) on an Octet RED 96e instrument. Briefly, cell culture supernatants were diluted based on qualitative expression level of the variant determined by visual examination of SDS-PAGE gels, 5 μL of cell culture supernatant was diluted into 195 μL of 1×PBST, pH 7.4 for high expressors, 25 μL of cell culture supernatant was diluted into 175 μL of 1×PBST, pH 7.4 for medium expressors and 100 μL of cell culture supernatant was diluted into 100 μL of 1×PBST, pH 7.4 for low expressors for loading onto the sensor tips. The resulting diluted supernatants were then captured on an anti-human Fc sensor (Forte Bio). A baseline was established using 1×PBST (50 mM Potassium Phosphate Buffer+150 mM NaCl+0.05% Tween 20) pH 7.4, and the […] was associated with 50 nM of LRRC15 (Human LRRC15 Protein, His Tag, Acro Biosystems) in 1×PBST pH 7.4 for 120 sec to generate an association curve. In the dissociation phase, the antibody-antigen complex on the sensor was exposed to 1×PBST pH 7.4 or pH 5.4, for 300 sec. Association and dissociation phase curves were examined for the starting ABPC antibody (with no substitutions) and each corresponding antibody variant at pH 5.4 and pH 7.4 to inform on two criteria: a) enhanced dissociation (i.e., higher koff values) at pH 5.4 due to histidine substitution compared to the starting ABPC, (with no substitutions), and b) reduced dissociation at pH 7.4 (i.e., lower koff values) compared to pH 5.4 in the antibody variant itself and with the starting ABPC (with no substitutions).
The methods of Examples 9-10 were applied to RabMAb clone 29F1 (rabbit VH SEQ ID NO: 572 and VL SEQ ID NO: 578; and humanized VH SEQ ID NO: 576 and VL SEQ ID NO: 582).
Turning to B13, the binding result is “binds”. For the molecule B14, the binding result is “binds”. For the molecule B15, the binding result was “binds”. On the same count and under the same terms, with B16 the entry was “binds”.
